Key:
[1] = In vitro activity of PFL_4321 and PFL_0203 toward fatty acids with various chain lengths; assay type: biochemical; design: key to In vitro activity toward C8:0 / In vitro activity toward C10:0 / In vitro activity toward C12:0 / In vitro activity toward C14:0 / In vitro activity toward C16:0: ✓: indicates production of the corresponding 1-alkene from the indicated substrate; x: indicates failure to produce the corresponding 1-alkene from the indicated substrate
Protocol: A typical condition is as follows: 1 mL of reaction mixture contains 50 mM MES buffer (pH 6.2), 300 mM NaCl, 100 μM (NH4)2Fe(SO4)2, 1 mM ascorbic acid, 100 μM fatty acid substrate or analogs, and 10 μM enzyme. The reaction was performed in a sealed headspace vial at 30° C., initiated by adding lauric acid and quenched by injecting equal volume of 5 M NaOH. 1-Undecene production was analyzed and quantified by using the SPME-GCMS method. To determine the kinetic parameters of PFL_4321 on lauric acid, initial velocities at 1, 10, 20, 50, 100, and 150 μM of lauric acid were measured (25 mM lauric acid solution was prepared by adding 0.5% tergitol and heating at 65° C. for 10 min). The reactions were quenched at 2, 4, 6, 8, and 10 seconds, and the acquired turnover rates were fit to the Michaelis-Menten equation using GraphPad Prism to obtain kcat and Km. The kcat and Km of myristic acid and capric acid were determined similarly.
Unless otherwise noted, all experiments with PFL_0203 as described herein were performed using similar assays, procedures, and techniques as used in a given corresponding experiment as described in Example 1.
The fatty acid substrate specificity of PFL_0203 was investigated in a series of in vitro experiments. […] Thus, PFL_4321 and PFL_0203 share some overlap in suitable substrates; PFL_4321 is able to act on C10-C14 fatty acid substrates, and PFL_0203 is able to act on C10-C16 fatty acid substrates.

[2] = In vitro 1-undecene production by purified PFL_0203 with E. coli crude extract; assay type: biochemical; settings: purified PFL_0203 mixed with E. coli crude extract and exogenous lauric acid
[3] = system: E. coli; experiment: 1-undecene production in E. coli overexpressing PFL_4321, PFL_0203 or homologs, with or without UcFatB2; assay type: cell-based; settings: E. coli, one-day shake flask culture in LB media without exogenous lauric acid
Protocol: E. coli, P. aeruginosa PAO-1, and P. aeruginosa PA14 strains were grown in 5 mL of LB medium overnight at 37° C., while all the other Pseudomonas and Acinetobacter strains were grown at 30° C. […] The culture was shaken in a sealed 20 mL headspace vial (Agilent certified) containing a stir bar at 30° C. for 36 hr. After incubation, an SPME fiber (30 μm polydimethylsiloxane, Supelco, Sigma-Aldrich Group, Bellefonte, Pa.) was manually inserted into the headspace vial and incubated at 25° C. for 12.5 min. GC-MS analysis was conducted on a Varian CP-3800 instrument equipped with a Varian 320-MS. […] The signals of the 1-alkenes were identified and quantified by comparison with authentic samples (MP Biomedicals), which were diluted in ethyl acetate, added to 5 mL of culture medium in a sealed headspace vial, and sampled by the same SPME-GCMS method as described above.
[…] 1-Undecene production was detected by using the SPME-GCMS method. […]
To investigate whether PFL_0203 was facilitating the production of 1-undecene, this gene was individually expressed in E. coli and the cells were monitored for 1-undecene production. […]

B1: PFL_0203: hypothetical membrane-associated protein from Pseudomonas fluorescens Pf-5 converting C10-C16 fatty acids into 1-alkenes (protein, listed as Pseudomonas protegens)
chain: MQGISASPERMNAQQRAAHVRQVVLARGDELRRRFPLLRHQDALGAGILAFALSGMLGSALLYVTGHLAWWACLLLNAFFASLTHELEHDLIHSMYFRKQRLPHNLMLGLVWLARPSTINPWVRRHLHLNHHKVSGSESDIEERAITNGEPWGIARLLMVGDNMMAAFIRLLRAPGARRKLGILVRTLAVYAPLALLHWGAWYVFLGFHGANGVAALLGSPIQWSQDTASLMHYVDIAVVVIIGPNVLRTFCLHFVSSNMHYYGDIEPGNVIQQTQVLNPWWMWPLQAFCCNFGSTHGIHHFVVREPFYIRQMTASVAHKVMAEMGVRFNDFGTFARANRFTRQEREAMQPAHNARA
activity on C8 or C18 fatty acids ([1]; in vitro, C8 or C18 fatty acids): failed to act | conversion of C10-C16 fatty acids into their corresponding [M-1] 1-alkenes ([1]; in vitro, C10-C16 fatty acids): converted | In vitro activity toward C8:0 ([1]; substrate C8:0): x | In vitro activity toward C10:0 ([1]; substrate C10:0): trace | In vitro activity toward C12:0 ([1]; substrate C12:0): ✓ | In vitro activity toward C14:0 ([1]; substrate C14:0): ✓ | In vitro activity toward C16:0 ([1]; substrate C16:0): trace | 1-undecene production [2]: resulted in 1-undecene production | titer of 1-undecene [3]: ~0.2 µg/mL

Reference: patent publication US10000775B2, “Biosynthesis of 1-undecene and related terminal olefins” (The Regents of the University of California, priority 2013, dated 2018)
